Publication PMC12772213
Like-named read-outs stand apart in the source and are kept apart here.

Columns and labels:
[1] = molecular target: Actin filaments (rabbit skeletal muscle actin) (rabbit) (UniProt P68135)
[2] = molecular target: Actin filaments (rabbit skeletal muscle actin) (rabbit) (UniProt P68135); test: three-bead optical trap; isometric feedback (hindering load); detachment rate vs. force fitted to the Bell equation, interactions >10 pN excluded; cHMM held through antibody to the S2Tag; 20 °C
[3] = molecular target: Actin filaments (rabbit skeletal muscle actin) (rabbit) (UniProt P68135); test: three-bead optical trap; pedestal bead stage feedback; time between single actomyosin interactions at saturating (2 mM) ATP, double-exponential distribution; cHMM held through antibody to the S2Tag; 20 °C
[4] = molecular target: Actin filaments (rabbit skeletal muscle actin) (rabbit) (UniProt P68135); test: three-bead optical trap; unloaded; cHMM held on pedestal beads through antibody to the S2Tag, actin filament suspended between two trapped beads; 1 µM MgATP; 20 °C; 60 mM MOPS, 25 mM KCl, 1 mM DTT, 1 mM MgCl2, 1 mM EGTA; single-molecule events by bead covariance
[5] = molecular target: Actin filaments (rabbit skeletal muscle actin) (rabbit) (UniProt P68135); test: three-bead optical trap; unloaded; cHMM held on pedestal beads through antibody to the S2Tag, actin filament suspended between two trapped beads; 2 mM MgATP; 20 °C; 60 mM MOPS, 25 mM KCl, 1 mM DTT, 1 mM MgCl2, 1 mM EGTA; single-molecule events by bead covariance
Pyrene-actin (rabbit) = Pyrene-actin (rabbit) (UniProt P68135); test: stopped-flow pyrene-actin fluorescence; myosin heads (apyrase-treated) mixed with equimolar pyrene-actin 10 min at RT in KMg25 buffer (60 mM MOPS pH 7, 25 mM KCl, 1 mM EGTA, 1 mM MgCl2, 1 mM DTT), then mixed with ATP; ATP-induced dissociation followed by pyrene fluorescence
[6] = molecular target: Actin filaments (rabbit skeletal muscle actin) (rabbit) (UniProt P68135); test: three-bead optical trap; isometric feedback (hindering load); detachment rate vs. force fitted to the Bell equation, interactions >10 pN excluded; cHMM held through antibody to the S2Tag; 20 °C; remark: listed apart in the source

Actin gliding velocity (in vitro gliding assay, cHMM held through S2Tag antibody, rhodamine-phalloidin labeled actin, 32 °C) [1]	Bell equation k0 (detachment rate at zero force) [2]	actin reattachment rate in optical trap (fast) [3]	actin reattachment rate in optical trap (slow) [3]	k detach (1 μM ATP) [4]	k detach (2 mM ATP) [5]	maximum rate of ATP-induced dissociation of actomyosin (Pyrene-actin (rabbit))	Bell equation k0 (detachment rate at zero force) [6]	Substance
0.46 µm/s	12.9 s⁻¹	23 s⁻¹	1.62 s⁻¹	6.26 s⁻¹	12.1 s⁻¹	340 s⁻¹	–	Human β-cardiac myosin HMM M493I mutant (M493I-cHMM) (from UniProt P12883 1-1935; P05977 1-188; P97457 1-169) (complex)
1.6 µm/s	32.9 s⁻¹	17 s⁻¹	0.83 s⁻¹	6.09 s⁻¹	58.5 s⁻¹	–	32 s⁻¹	Human β-cardiac myosin wild type HMM (WT-cHMM) (from UniProt P12883 1-1935; P05977 1-188; P97457 1-169) (complex)
